The target in one assay is human FSH (human) (UniProt P01215). In words: photoaffinity labeling, SDS-PAGE autoradiograph.
Assay [1] deals with LHR I^577A mutant (human) (UniProt P22888). In words: 125I-hCG displacement / Scatchard. Conditions: ligand.
Assay [2] addresses LHR K^573A mutant (human) (UniProt P22888). In words: 125I-hCG displacement / Scatchard. Conditions: ligand.
The target in assay [3] is LHR L^576A mutant (human) (UniProt P22888). In words: 125I-hCG displacement / Scatchard. The following applies: ligand.
Assay [4] concerns the target LHR N^581A mutant (human) (UniProt P22888). In words: 125I-hCG displacement / Scatchard. The following applies: ligand.
Assay [5] deals with LHR P^575A mutant (human) (UniProt P22888). In words: 125I-hCG displacement / Scatchard. Conditions: ligand.
The target in assay [6] is LHR T^578A mutant (human) (UniProt P22888). In words: 125I-hCG displacement / Scatchard. The following applies: ligand.
Assay [7] concerns the target LHR T^580A mutant (human) (UniProt P22888). In words: 125I-hCG displacement / Scatchard. Conditions: ligand.
The target of assay [8] is LHR V^579A mutant (human) (UniProt P22888). In words: 125I-hCG displacement / Scatchard. The following applies: ligand.
For assay [9], the target named is LHR^K583A (human) (UniProt P22888). In words: 125I-hCG displacement / Scatchard. Conditions: ligand.
Assay [10] deals with LHR^S582A (human) (UniProt P22888). In words: 125I-hCG displacement / Scatchard. Conditions: ligand.
Assay [11] addresses LHR^V574A (human) (UniProt P22888). In words: 125I-hCG displacement / Scatchard. Conditions: ligand.
Assay [12] deals with LHR^S582A (human) (UniProt P22888). In words: cell-based or functional assay.
In assay [13] the target is LHR^V574A (human) (UniProt P22888). In words: cell-based or functional assay.
The target in assay [14] is LHR^K583A (human) (UniProt P22888). In words: 125I-hCG competition binding on HEK293 cells, Scatchard.

By Kd is commonly meant the free concentration of one partner at which half of the binding sites on the other are occupied at equilibrium, for simple one-to-one binding.

Sequence of LHR^S582A (human) (P22888 27-699, stated change not applied): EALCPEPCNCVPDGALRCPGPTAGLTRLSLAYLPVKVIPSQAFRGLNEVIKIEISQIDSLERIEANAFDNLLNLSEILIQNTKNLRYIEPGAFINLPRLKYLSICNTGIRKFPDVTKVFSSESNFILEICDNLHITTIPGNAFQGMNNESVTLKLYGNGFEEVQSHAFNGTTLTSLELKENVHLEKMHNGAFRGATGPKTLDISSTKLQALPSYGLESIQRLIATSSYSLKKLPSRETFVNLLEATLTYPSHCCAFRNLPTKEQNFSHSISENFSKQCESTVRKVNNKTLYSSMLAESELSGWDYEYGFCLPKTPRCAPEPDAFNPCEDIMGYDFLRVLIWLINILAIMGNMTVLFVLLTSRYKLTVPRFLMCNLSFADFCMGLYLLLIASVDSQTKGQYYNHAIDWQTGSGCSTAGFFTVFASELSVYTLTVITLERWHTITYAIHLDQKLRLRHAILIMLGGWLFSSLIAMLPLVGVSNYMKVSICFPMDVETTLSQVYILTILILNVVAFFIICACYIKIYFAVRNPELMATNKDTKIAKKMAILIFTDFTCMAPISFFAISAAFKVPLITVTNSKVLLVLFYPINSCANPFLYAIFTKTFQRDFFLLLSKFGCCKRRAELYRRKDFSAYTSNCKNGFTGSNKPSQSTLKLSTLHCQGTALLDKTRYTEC
Sequence of LHR^V574A (human) (P22888 27-699, stated change not applied): as above
Sequence of LHR^K583A (human) (P22888 27-699, stated change not applied): as above
Sequence of LHR T^580A mutant (human) (P22888 other isoform, or with tags, fused parts or gaps mutant): as the sequence (P22888 27-699, stated change not applied) above, with T576A counted along it
Sequence of LHR L^576A mutant (human) (P22888 27-699, change not shown): as the sequence (P22888 27-699, stated change not applied) above
Sequence of LHR T^578A mutant (human) (P22888 27-699, change not shown): as the sequence (P22888 27-699, stated change not applied) above
Sequence of LHR I^577A mutant (human) (P22888 27-699, change not shown): as the sequence (P22888 27-699, stated change not applied) above
Sequence of LHR P^575A mutant (human) (P22888 27-699, change not shown): as the sequence (P22888 27-699, stated change not applied) above
Sequence of LHR N^581A mutant (human) (P22888 27-699, change not shown): as the sequence (P22888 27-699, stated change not applied) above
Sequence of LHR V^579A mutant (human) (P22888 27-699, stated change not applied): as above
Sequence of LHR K^573A mutant (human) (P22888 27-699, change not shown): as the sequence (P22888 27-699, stated change not applied) above

Take ^125I-FSHR^9-40F13Bpa (peptide): the percent of FSH labeled with human FSH (human) is greater than 50%.
For the substance “hCG (from UniProt P01215 25-116; P0DN86 21-165)”, the dissociation constant Kd in [1] stood at 0.746 nM; in assay [2] it was 0.348 nM; in [3], 0.43 nM; in [4], 0.35 nM; in assay [5] it was 0.277 nM; in assay [6] it was 0.299 nM. For the same substance, the Kd in assay [7] came to 0.623 nM; in [8] it was 0.985 nM; with LHR^K583A (human) [9], 0.195 nM; in the assay with LHR^S582A (human) [10], 0.942 nM; in the assay with LHR^V574A (human) [11] it was 0.24 nM.
For “hCG (from UniProt P01215 25-116; P0DN86 21-165) (ligand)”, in the assay with LHR^S582A (human) [12], the IP1 (cpm) worked out at 15100 cpm; the IP1 maximum level, mutant/wild type came to 1.09; the IP2 (cpm) worked out at 900 cpm; the IP2 maximum level, mutant/wild type came to 1.29. In the assay with LHR^S582A (human) [12], the IP3 (cpm) worked out at 386 cpm; the IP3 maximum level, mutant/wild type was 1.38; the IPt (cpm) was 16200 cpm; the IPt maximum level, mutant/wild type was determined as 1.11. In the assay with LHR^V574A (human) [13], this substance registered an IP1 (cpm) of 2110 cpm; an IP1 maximum level, mutant/wild type of 0.15; an IP2 (cpm) of 180 cpm; an IP2 maximum level, mutant/wild type of 0.25. For the same substance, in the assay with LHR^V574A (human) [13], the IP3 (cpm) was found to be 80 cpm; the IP3 maximum level, mutant/wild type amounted to 0.39; the IPt (cpm) was 2230 cpm; the IPt maximum level, mutant/wild type was 0.15. The same substance yielded a fold improvement of binding affinity over wild type with LHR^K583A (human) [14] of 2 fold.

The values are drawn from US20050142135A1, “Agents and methods for modulating interactions between gonadotropin hormones and receptors” (University of Kentucky Research Foundation, priority 2003, published 2005).
